Paper PMC5300155, “Biochemical and biophysical investigations of the interaction between human glucokinase and pro-apoptotic BAD” (PLoS ONE, 2017)
Primed or numbered codes have the meaning given here. No end group written: not given here. FITC′ = fluorescein isothiocyanate label

Legend:
GST = experiment: AUC; sedimentation velocity; single proteins or 1:1 molar mixtures incubated on ice 30 min; BAD buffer pH 8.5; 20°C
[1] = target: T1, recombinant human Bcl-xL, Δ45–84, Δ210–233 variant (human, UniProt Q07817-1 1-209, Δ45–84); experiment: fluorescence polarisation; 15 nM FITC peptide, Bcl-xL varied 0–2.25 μM; BAD buffer mixed with phosphate assay buffer pH 7.4; room temperature; conditions: both partners purified
T1 construct: Bcl-xL, human; loop 45-84 deleted and C-terminal residues 210-233 lacking; also called soluble, recombinant Bcl-xL
T1 sequence (Q07817 other isoform, or with tags, fused parts or gaps Δ45–84 | Δ45–84 | mutant): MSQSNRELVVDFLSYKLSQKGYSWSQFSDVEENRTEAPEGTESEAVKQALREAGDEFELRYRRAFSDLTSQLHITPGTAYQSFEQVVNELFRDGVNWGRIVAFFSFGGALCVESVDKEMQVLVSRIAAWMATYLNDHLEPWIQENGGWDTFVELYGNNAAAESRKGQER

GST (natural protein) was tested, and the stoichiometry N (GST) was 2.

B1: FITC-labeled 21-residue peptide containing the BH3 domain of BAD (peptide)
peptide: NLWAAQRYGRELRRMSDK(FITC′)FVD
notes: BH3 domain of BAD, human; also called f-BH3; fluorescent BH3 peptide; source: synthetic peptide (Peptide2.0, >95%)
Molecule B1 has a Kd [1] of 180 nM.
